One may read the stoichiometry N as the number of molecules, sites or subunits per partner or assembly.

This data set concerns the molecule itself. Description: AUC.

B1: Tpa1Δ20, N-terminal truncated form (residues 21–644) of S. cerevisiae Tpa1 (domain or fragment, UniProt P40032 21-644, looked up)
chain: LEEDKIKGMFNPKIWDKTFQDGLKKEIEDSQPYNWGTIHELVNDDLLRAVRKEIETEIHFTKKETDIYRVNQSGDLANLSGLDWDDLSRLPNLFKLRQILYSKQYRDFFGYVTKAGKLSGSKTDMSINTYTKGCHLLTHDDVIGSRRISFILYLPDPDRKWKSHYGGGLRLFPSILPNVPHSDPSAKLVPQFNQIAFFKVLPGFSFHDVEEVKVDKHRLSIQGWYHIPQVGEEGYIPGEEEAWVRNNTSTLAQIESNVLEDFEFPKDERNILSFHEVKHFEKMLKGDAGAKTDNTPKESMTSVISDSVKLSEAEFTYLSQYISPEHLSSKGIEKLQKQFVENSSLQIESFLNDDKSELLKKVIKQKELEQECPYHSKDVKAPWKTAIPPHKARYLYIDGKEYRNFQTEADILEALNNNDLPNFQFTKDAIKIISDASGNSRENNFDAELALIDLAVFHKSTIFKKYLALLTSLCPVSEQILIRRFRPGMDFTLATKCRFNELLKSNPDIIDAVLEGTLCLTPSAGWESGELGGYELYMMDDDEDNKQYLKEDVEDASVYRADDSGDSVLINDPPAWNTFNLVLRDESVLEFVKYVSWSAKSSRWDVKMKWDVKSCDEDGQEDEA
With B1, the “stoichiometry N” value came out at 2.

These data come from PMC2847220 (Nucleic Acids Research, 2009).
